From patent publication US20240059769A1 (BIOLOJIC DESIGN, published 2024) come the findings set out here.

B1: BDG38.090 (antibody, V domains shown)
VH: QMQLVESGGGVVQPGRSLTLSCAASGFEFRTYGMHWVRQAPGKGLEWLGVIWDDGSNTHYADSVKGRFTITRDNSKNTLNLQMNSLRVEDTAVYYCARAPQWYLTAEAFDLWGQGTMVTVSS
VL: SYILTQPPSVSVAPGETARITCGGNLIGARLVHWYQQKPGQAPVLVVYDDSDRPSRIPERFSGSNIGNTATLTIEDVEEGDEADYYCQVWDYYSDHMVFGGGTKLTVL
notes: IgG1
B2: BDG38.096 (antibody, V domains shown)
VH: B1 VH with T19R, L48V, G49A, A97V
VL: B1 VL with V47I, E75S, D76R, Y93S, H96S
notes: IgG1
B3: BDG38.112 (antibody, V domains shown)
VH: B1 VH with T19R, D53Y, V88A, A97V
VL: B1 VL with E16Q, R19T, V47I, D76R, Y93S, H96T, M97Y
notes: IgG1
B4: BDG38.092 (antibody, V domains shown)
VH: B1 VH with G49A, A97V
VL: B1 VL with I3V, R19T, V47I, E75S
notes: IgG1
B5: BDG38.116 (antibody, V domains shown)
VH: B1 VH with L48V, G49A, A97V
VL: B1 VL with I3V, E16Q, R19T, V47I, D76R, E79A, H96T
notes: IgG1
B6: BDG38.129 (antibody, V domains shown)
VH: B1 VH with L48V
VL: B1 VL with E16Q, R19T, R30K, V47I, E75S, Y93S
notes: IgG1
B7: BDG38.140 (antibody, V domains shown)
VH: B1 VH with L48V
VL: B1 VL with R19T, R30K, V47I, E79A, Y93S, S94A, D95N
notes: IgG1
B8: BDG38.139 (antibody, V domains shown)
VH: B1 VH with T19R, E28A, L48V, G49A, V88A, A97V, T105S
VL: SYVLTQPPSVSVAPGETATITCGGNMIGAYLVHWYQQKPGQAPLLVIYDDVDRPARIPERFSGSNSGNTATLTISRVEAGDEADYYCQVWDHNSDHMVFGGGTKLTVL
notes: IgG1
B9: BDG38.128 (antibody, V domains shown)
VH: B1 VH with L48V, G49A, A97V
VL: B1 VL with R19T, R30K, V47I, I66S, E75S, S94A, H96T
notes: IgG1
B10: BDG38.135 (antibody, V domains shown)
VH: B1 VH with R16Q, T19R, E28A, G49A, D53Y, V88A, A97V, L104N, T105S
VL: SYVLTQPPSVSVAPGQTARITCGGNLIGARLVHWYQQKPGQAPVLVVYDDSDRPSHIPERFSGSNSGNTATLTISRVEAGDEADYYCQVWDHSADTMVFGGGTKLTVL

Positions count from the first letter of the chain named.

T3 sequence (Q0PW92 entry or part of it): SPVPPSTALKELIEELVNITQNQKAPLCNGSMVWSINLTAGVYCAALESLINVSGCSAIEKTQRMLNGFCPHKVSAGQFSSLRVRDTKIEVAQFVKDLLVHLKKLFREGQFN

The target of the first assay is T1, recombinant human IL-13 (human, UniProt P35225 35-146).
T1 construct: also called rh-IL-13; hIL-13
T1 sequence (P35225 35-146 limits assumed): as the sequence (Q0PW92 entry or part of it) above, with S1G, K10R, V42M, N67S, R83H, V100L counted along it
The experiment in a line: SPR. (In general: Surface plasmon resonance follows binding to a sensor surface in real time, without labels.)
Take B1: the Kd (commonly the concentration at which binding is half-saturated) turned out to be 19.8 pM; the dissociation rate constant (koff) (in general, the first-order rate constant of dissociation) was 0.00013 s⁻¹; the kon (as a rule, the rate constant with which the complex forms) was 6.57e+06 M⁻¹ s⁻¹.
In the case of B2, the equilibrium dissociation constant (Kd) was determined as 25.1 pM, the koff amounted to 0.000155 s⁻¹ and the kon came out at 6.19e+06 M⁻¹ s⁻¹.
Take B3: the Kd came out at 17.3 pM, the koff came to 4.02e-05 s⁻¹ and the on-rate (kon) is 2.32e+06 M⁻¹ s⁻¹.
In the case of B4, the dissociation constant Kd amounted to 9.5 pM, the koff came out at 5.37e-05 s⁻¹ and the kon was 5.65e+06 M⁻¹ s⁻¹.
In the case of B5, the Kd was 21 pM, the off-rate (koff) turned out to be 0.000116 s⁻¹ and the on-rate (kon) turned out to be 5.51e+06 M⁻¹ s⁻¹.

A further assay deals with T2, human TSLP (human, UniProt Q969D9 29-159).
T2 construct: also called hTSLP; rhTSLP
As to the kind of experiment: SPR.
Consider B1, for which the Kd came to 11.8 pM, the koff was 0.000113 s⁻¹ and the kon is 9.57e+06 M⁻¹ s⁻¹.
B2 gave a Kd of 21 pM, an off-rate (koff) of 0.000133 s⁻¹ and an on-rate constant (kon) of 6.33e+06 M⁻¹ s⁻¹.
Molecule B3 returned a dissociation constant (Kd) of 258 pM, an off-rate constant (koff) of 0.000274 s⁻¹ and a kon of 1.06e+06 M⁻¹ s⁻¹.
As to B4, the Kd was 3.92 pM, the koff was found to be 2.46e-05 s⁻¹ and the kon worked out at 6.28e+06 M⁻¹ s⁻¹.
The molecule B5 registered a Kd of 7.27 pM, a koff of 3.95e-05 s⁻¹ and a kon of 5.44e+06 M⁻¹ s⁻¹.

The target in the next assay is T1, recombinant human IL-13. The experiment in a line: SPR. The source holds these as a separate data set.
For the molecule B6, the Kd came out at 16.7 pM, the off-rate constant (koff) was found to be 0.000116 s⁻¹ and the association rate constant (kon) worked out at 6.96e+06 M⁻¹ s⁻¹.
Consider B7, for which the dissociation constant (Kd) was found to be 34.4 pM, the koff came to 0.000168 s⁻¹ and the on-rate (kon) came out at 4.88e+06 M⁻¹ s⁻¹.
As for B8, the dissociation constant (Kd) worked out at 27.5 pM, the koff stood at 0.000212 s⁻¹ and the kon amounted to 7.71e+06 M⁻¹ s⁻¹.
On to B9, for which the Kd stood at 32.1 pM, the koff is 0.000176 s⁻¹ and the on-rate constant (kon) was found to be 5.49e+06 M⁻¹ s⁻¹.

The target in another assay is T2, human TSLP. The experiment in a line: SPR. The source holds these as a separate data set.
In the case of B6, the Kd came to 22.6 pM, the koff is 9.12e-05 s⁻¹ and the kon stood at 4.03e+06 M⁻¹ s⁻¹.
Taken in the same sequence, the figures for B7 were 8.27 pM, 2.79e-05 s⁻¹ and 3.38e+06 M⁻¹ s⁻¹.
Turning to B8, the Kd turned out to be 3.27 pM, the koff stood at 2.54e-05 s⁻¹ and the association rate constant (kon) is 7.78e+06 M⁻¹ s⁻¹.
With B9, the affinity, expressed as Kd, was 9.07 pM; the koff was 3.86e-05 s⁻¹; the on-rate constant (kon) was determined as 4.25e+06 M⁻¹ s⁻¹.

The next assay concerns the target T3, recombinant cynomolgus monkey IL-13 (cynomolgus monkey, UniProt Q0PW92 21-132).
T3 construct: bought; also called rc-IL-13; cIL-13
The experiment in a line: SPR.
Regarding B1, the equilibrium dissociation constant (Kd) came to 75.2 pM, the koff turned out to be 0.00187 s⁻¹ and the on-rate constant (kon) was 2.49e+07 M⁻¹ s⁻¹.
On to B6, for which the Kd worked out at 23.1 pM, the off-rate constant (koff) was determined as 0.0014 s⁻¹ and the association rate constant (kon) was 6.05e+07 M⁻¹ s⁻¹.
On to B2, for which the Kd worked out at 44.2 pM, the dissociation rate constant (koff) amounted to 0.00242 s⁻¹ and the kon is 5.47e+07 M⁻¹ s⁻¹.
With B7, the Kd is 23.8 pM, the off-rate constant (koff) stood at 0.00131 s⁻¹ and the kon came out at 5.54e+07 M⁻¹ s⁻¹.
Consider B8, for which the Kd turned out to be 339 pM, the koff was 0.0077 s⁻¹ and the kon was 2.27e+07 M⁻¹ s⁻¹.
For the molecule B4, the Kd came to 42.8 pM, the off-rate (koff) was 0.00129 s⁻¹ and the kon was 3.01e+07 M⁻¹ s⁻¹.
For B5, the dissociation constant Kd turned out to be 27 pM, the koff was 0.000847 s⁻¹ and the kon was 3.14e+07 M⁻¹ s⁻¹.
Taken in the same sequence, the figures for B9 were 102 pM, 0.00309 s⁻¹ and 3.02e+07 M⁻¹ s⁻¹.

Another assay deals with T4, cynomolgus monkey (cyno) TSLP (cynomolgus monkey, UniProt A0A7N9CAT7 29-159).
T4 construct: also called cTSLP; cynomolgus TSLP
T4 sequence (A0A7N9CAT7 entry or part of it): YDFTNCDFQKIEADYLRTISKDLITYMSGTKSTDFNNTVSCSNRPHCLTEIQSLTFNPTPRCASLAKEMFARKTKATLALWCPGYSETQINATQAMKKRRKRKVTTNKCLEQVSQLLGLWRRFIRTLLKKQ
The experiment in a line: SPR.
The molecule B1 registered a dissociation constant Kd of 9.01 pM, an off-rate constant (koff) of 5.53e-05 s⁻¹ and an association rate constant (kon) of 6.14e+06 M⁻¹ s⁻¹.
The like results for B6 were, in that order, 14.1 pM, 5.27e-05 s⁻¹ and 3.75e+06 M⁻¹ s⁻¹.
For B2, the dissociation constant (Kd) stood at 18.1 pM, the koff was determined as 6.14e-05 s⁻¹ and the kon came to 3.39e+06 M⁻¹ s⁻¹.
Taken in the same sequence, the figures for B7 were 0.614 pM, 2.78e-06 s⁻¹ and 4.53e+06 M⁻¹ s⁻¹.
Regarding B8, binding was characterised by a dissociation constant (Kd) of 2.39 pM, the dissociation rate constant (koff) was found to be 1.55e-05 s⁻¹ and the kon was determined as 6.5e+06 M⁻¹ s⁻¹.
Regarding B4, the equilibrium dissociation constant (Kd) was determined as 4.48 pM, the koff came out at 1.72e-05 s⁻¹ and the kon stood at 3.84e+06 M⁻¹ s⁻¹.
For B5, binding was characterised by a dissociation constant (Kd) of 27.1 pM, the off-rate constant (koff) was determined as 0.000386 s⁻¹ and the kon stood at 1.43e+07 M⁻¹ s⁻¹.
Molecule B9 showed a Kd of 0.0492 pM, a koff of 7.62e-08 s⁻¹ and a kon of 1.55e+06 M⁻¹ s⁻¹.

A further assay deals with T1, recombinant human IL-13. The experiment in a line: cell-based or functional assay.
For the molecule B1, the “IC50 CD23” value was 6.56 pM.
Take B10: the “IC50 CD23” value was 408 pM.
As to B6, the “IC50 CD23” value came out at 29 pM.
Take B2: the “IC50 CD23” value amounted to 250 pM.
Regarding B3, the “IC50 CD23” value stood at 59.4 pM.
Regarding B7, the “IC50 CD23” value was found to be 146 pM.
For the molecule B8, the “IC50 CD23” value was found to be 12 pM.
As to B4, the “IC50 CD23” value is 67.5 pM.
Still for that read-out and setting: under B5 stands 83.7 pM.
With B9, the “IC50 CD23” value was 14.9 pM.

Another assay has as its target T2, human TSLP. The experiment in a line: cell-based or functional assay.
Consider B1, for which the “IC50 TARC” value is 7.55 pM.
Turning to B10, the “IC50 TARC” value was determined as 804 pM.
As for B2, the “IC50 TARC” value stood at 23400 pM.
B3: the “IC50 TARC” value came out at 104 pM.
As for B4, the “IC50 TARC” value is 5880 pM.
For the molecule B5, the “IC50 TARC” value was 59400 pM.

The next assay addresses T5, hTSLP-His (human, UniProt Q969D9 29-159, limits assumed). The experiment in a line: cell-based or functional assay.
B1: the “IC50 [pM], STAT5 phosphorylation inhibition in MUTZ5 cells” value turned out to be 43.4 pM.
As to B6, the “IC50 [pM], STAT5 phosphorylation inhibition in MUTZ5 cells” value worked out at 0.676 pM.
Consider B3, for which the “IC50 [pM], STAT5 phosphorylation inhibition in MUTZ5 cells” value stood at 11400 pM.
The same measure, in the same setting: under B7 stands 2.21 pM.
As for B8, the “IC50 [pM], STAT5 phosphorylation inhibition in MUTZ5 cells” value came out at 89 pM.
B4: the “IC50 [pM], STAT5 phosphorylation inhibition in MUTZ5 cells” value worked out at 33 pM.
Same read-out and setting: the same measure for B9: 0.0048 pM.

The target in the next assay is T1, recombinant human IL-13. As to the kind of experiment: cell-based or functional assay. This is another data set of the same source.
On to B1, for which the “HEK-IL-13 [nM] (IC50, STAT6 reporter)” value stood at 0.103 nM.
For the molecule B10, the “HEK-IL-13 [nM] (IC50, STAT6 reporter)” value was 0.406 nM.
The same measure, in the same setting: the same measure for B6: 0.0725 nM.
For the molecule B2, the “HEK-IL-13 [nM] (IC50, STAT6 reporter)” value came to 0.15 nM.
The same measure, in the same setting: the same measure for B3: 0.0367 nM; for B7: 0.043 nM.
In the case of B8, the “HEK-IL-13 [nM] (IC50, STAT6 reporter)” value was determined as 0.0464 nM.
Turning to B4, the “HEK-IL-13 [nM] (IC50, STAT6 reporter)” value was determined as 0.12 nM.
In the case of B5, the “HEK-IL-13 [nM] (IC50, STAT6 reporter)” value is 0.18 nM.
Same read-out and setting: the same measure for B9: 0.0523 nM.

In a further assay the target is T5, hTSLP-His. The experiment in a line: competition ELISA, 7 nM TSLP-His pre-incubated with antibody; competitor Tezepelumab coated.
Turning to B1, the IC50 (as a rule, the concentration needed to halve the response being measured) was determined as 7310 pM.
Take B6: the IC50 was 5490 pM.
B2: the IC50 turned out to be 5870 pM.
B3 gave a half-inhibitory concentration (IC50) of 29100 pM.
In turn, B7 came in with an IC50 of 5630 pM.
As for B8, the IC50 is 9570 pM.
B4 yielded an IC50 of 7380 pM.
Turning to B5, the IC50 was 5120 pM.
In the case of B9, the IC50 is 5380 pM.
